Measured values as given in PMC13546301, “Ternary Neurexin-T178-PTPR complexes represent a pre-synaptic core-module of neuronal synapse organization” (Nature Communications, 2026).

Target: T1, V5-tagged PTPRS (UniProt B0V2N1 30-1907)
T1 construct: Receptor-type tyrosine-protein phosphatase S; cDNA GenBank BC083188.1; also called PTPRSV5; source: tsA201 cells, transfected, CL-91-solubilised membrane fraction; not shown: V5, C-terminal, kept
Experiment: affinity purification with mass spectrometry; anti-V5 APs from tsA201 cells expressing NRX1A and PTPRS-V5 with or without T178B; normalized abundance of NRX1A by MS, two independent APs with two controls
Details: partners not purified

T1 sequence (B0V2N1 30-1907): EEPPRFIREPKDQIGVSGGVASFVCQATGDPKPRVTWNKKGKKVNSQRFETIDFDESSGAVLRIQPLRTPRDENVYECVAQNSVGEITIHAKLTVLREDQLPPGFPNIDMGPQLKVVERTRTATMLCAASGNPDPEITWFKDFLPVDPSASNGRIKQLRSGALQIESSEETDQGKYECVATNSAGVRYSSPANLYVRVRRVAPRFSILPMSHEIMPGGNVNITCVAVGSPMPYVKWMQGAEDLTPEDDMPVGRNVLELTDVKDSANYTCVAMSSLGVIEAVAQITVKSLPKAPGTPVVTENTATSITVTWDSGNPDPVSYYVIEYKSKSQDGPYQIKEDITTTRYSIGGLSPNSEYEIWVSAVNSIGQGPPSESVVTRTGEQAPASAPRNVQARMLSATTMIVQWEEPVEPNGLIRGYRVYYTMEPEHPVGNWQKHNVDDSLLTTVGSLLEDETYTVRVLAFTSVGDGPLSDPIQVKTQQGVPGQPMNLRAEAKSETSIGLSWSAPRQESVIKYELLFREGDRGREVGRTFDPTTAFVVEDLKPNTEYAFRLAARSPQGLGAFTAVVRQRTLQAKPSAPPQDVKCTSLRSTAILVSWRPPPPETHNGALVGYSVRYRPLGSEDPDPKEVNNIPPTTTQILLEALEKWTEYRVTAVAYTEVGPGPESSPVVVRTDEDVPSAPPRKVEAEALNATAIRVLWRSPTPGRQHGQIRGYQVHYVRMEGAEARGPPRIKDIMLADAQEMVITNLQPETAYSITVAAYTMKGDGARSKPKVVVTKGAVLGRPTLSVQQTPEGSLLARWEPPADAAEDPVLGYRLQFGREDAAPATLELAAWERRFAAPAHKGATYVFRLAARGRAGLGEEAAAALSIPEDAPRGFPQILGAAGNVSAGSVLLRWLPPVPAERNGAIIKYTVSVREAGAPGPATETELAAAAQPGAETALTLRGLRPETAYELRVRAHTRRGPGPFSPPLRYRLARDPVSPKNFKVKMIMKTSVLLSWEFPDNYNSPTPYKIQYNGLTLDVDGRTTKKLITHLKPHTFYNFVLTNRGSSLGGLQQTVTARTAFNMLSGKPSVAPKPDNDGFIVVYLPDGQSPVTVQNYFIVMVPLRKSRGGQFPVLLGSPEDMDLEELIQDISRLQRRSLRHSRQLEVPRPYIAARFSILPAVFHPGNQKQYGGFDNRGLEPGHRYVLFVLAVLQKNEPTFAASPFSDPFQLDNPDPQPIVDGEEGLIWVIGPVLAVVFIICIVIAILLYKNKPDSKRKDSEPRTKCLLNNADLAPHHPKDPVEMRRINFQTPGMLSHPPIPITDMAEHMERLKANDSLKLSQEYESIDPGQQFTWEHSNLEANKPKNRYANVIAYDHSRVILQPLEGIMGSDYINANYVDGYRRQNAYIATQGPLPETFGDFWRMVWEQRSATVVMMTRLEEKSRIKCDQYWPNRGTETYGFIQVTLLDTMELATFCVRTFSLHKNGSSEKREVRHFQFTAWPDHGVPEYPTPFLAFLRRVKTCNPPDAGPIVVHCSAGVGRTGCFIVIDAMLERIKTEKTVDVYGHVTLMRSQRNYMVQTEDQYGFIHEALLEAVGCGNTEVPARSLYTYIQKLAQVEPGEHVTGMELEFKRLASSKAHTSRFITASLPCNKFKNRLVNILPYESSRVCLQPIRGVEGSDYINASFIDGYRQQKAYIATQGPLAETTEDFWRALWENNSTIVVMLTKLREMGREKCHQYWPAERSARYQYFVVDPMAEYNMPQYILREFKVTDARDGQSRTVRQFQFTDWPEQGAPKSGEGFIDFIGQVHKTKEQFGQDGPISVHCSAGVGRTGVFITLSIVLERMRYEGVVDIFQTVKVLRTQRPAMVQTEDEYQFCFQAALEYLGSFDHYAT

B1: HA-tagged NRX1A (natural protein)
chain: not shown
notes: Neurexin-1-alpha; in pCAG, from Addgene (#58622); also called NRX1A-HA; source: tsA201 cells, transfected, CL-91-solubilised membrane fraction
  fold increase of the interaction with T178B against pairwise expression without T178B: 10 fold
